Test results reported in patent US20250026792A1, “SELF-ASSEMBLING PEPTIDES WITH HYALURONIC ACID BINDING DOMAINS AND METHODS OF USE THEREOF” (Northwestern University, priority 2022, published 2025).

Columns and labels:
[1] = Circular dichroism (CD) of peptides; format: physicochemical; settings: 20 mM Sodium Cacodylate; for Ellipticity ratio (222 nm/208 nm) / Ellipticity 208 nm / Ellipticity 222 nm: 1.25 mg/mL; for Ellipticity 208 nm / Ellipticity 222 nm: CD data given as [θ]M×10^−3; for wavelength Minimum of CD profile: 5.0 mg/mL
[2] = biological target: T1, collagen type I (Rattus norvegicus, UniProt P02454+P02466); assay: ECM specificity binding test, collagen type I coating; settings: 5.0 mg/ml peptide, FIG. 4
T1 construct: purchased Sigma-Aldrich
T1 sequence (P02454 152-1207 limits assumed): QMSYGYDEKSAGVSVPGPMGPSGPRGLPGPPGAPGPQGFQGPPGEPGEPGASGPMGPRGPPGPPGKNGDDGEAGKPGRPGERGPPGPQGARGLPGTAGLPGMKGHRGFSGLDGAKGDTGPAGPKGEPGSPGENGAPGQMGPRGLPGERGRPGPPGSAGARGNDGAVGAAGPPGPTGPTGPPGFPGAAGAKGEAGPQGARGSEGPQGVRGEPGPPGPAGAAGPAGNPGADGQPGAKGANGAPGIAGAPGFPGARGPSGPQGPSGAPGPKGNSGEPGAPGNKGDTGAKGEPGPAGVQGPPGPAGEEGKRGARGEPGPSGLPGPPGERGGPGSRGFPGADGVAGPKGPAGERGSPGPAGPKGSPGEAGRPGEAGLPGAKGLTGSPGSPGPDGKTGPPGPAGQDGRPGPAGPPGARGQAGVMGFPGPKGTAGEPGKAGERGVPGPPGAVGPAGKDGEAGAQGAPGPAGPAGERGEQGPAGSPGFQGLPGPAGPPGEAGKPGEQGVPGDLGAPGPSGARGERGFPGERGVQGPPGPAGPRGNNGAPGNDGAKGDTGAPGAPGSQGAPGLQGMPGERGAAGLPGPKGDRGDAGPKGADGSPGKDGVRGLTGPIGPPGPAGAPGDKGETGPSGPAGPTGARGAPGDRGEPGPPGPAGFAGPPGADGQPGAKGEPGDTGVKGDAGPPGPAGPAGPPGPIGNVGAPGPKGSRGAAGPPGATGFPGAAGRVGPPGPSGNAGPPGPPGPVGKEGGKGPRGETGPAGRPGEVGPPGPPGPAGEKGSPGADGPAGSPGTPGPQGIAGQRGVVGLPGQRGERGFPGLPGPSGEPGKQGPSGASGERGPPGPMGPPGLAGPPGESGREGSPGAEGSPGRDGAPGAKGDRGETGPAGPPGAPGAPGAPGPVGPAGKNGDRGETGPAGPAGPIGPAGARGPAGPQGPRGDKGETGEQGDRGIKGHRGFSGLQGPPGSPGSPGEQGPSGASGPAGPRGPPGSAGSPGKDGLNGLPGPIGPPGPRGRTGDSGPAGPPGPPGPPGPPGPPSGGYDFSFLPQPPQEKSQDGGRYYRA
T1 sequence (P02466 86-1125 limits assumed): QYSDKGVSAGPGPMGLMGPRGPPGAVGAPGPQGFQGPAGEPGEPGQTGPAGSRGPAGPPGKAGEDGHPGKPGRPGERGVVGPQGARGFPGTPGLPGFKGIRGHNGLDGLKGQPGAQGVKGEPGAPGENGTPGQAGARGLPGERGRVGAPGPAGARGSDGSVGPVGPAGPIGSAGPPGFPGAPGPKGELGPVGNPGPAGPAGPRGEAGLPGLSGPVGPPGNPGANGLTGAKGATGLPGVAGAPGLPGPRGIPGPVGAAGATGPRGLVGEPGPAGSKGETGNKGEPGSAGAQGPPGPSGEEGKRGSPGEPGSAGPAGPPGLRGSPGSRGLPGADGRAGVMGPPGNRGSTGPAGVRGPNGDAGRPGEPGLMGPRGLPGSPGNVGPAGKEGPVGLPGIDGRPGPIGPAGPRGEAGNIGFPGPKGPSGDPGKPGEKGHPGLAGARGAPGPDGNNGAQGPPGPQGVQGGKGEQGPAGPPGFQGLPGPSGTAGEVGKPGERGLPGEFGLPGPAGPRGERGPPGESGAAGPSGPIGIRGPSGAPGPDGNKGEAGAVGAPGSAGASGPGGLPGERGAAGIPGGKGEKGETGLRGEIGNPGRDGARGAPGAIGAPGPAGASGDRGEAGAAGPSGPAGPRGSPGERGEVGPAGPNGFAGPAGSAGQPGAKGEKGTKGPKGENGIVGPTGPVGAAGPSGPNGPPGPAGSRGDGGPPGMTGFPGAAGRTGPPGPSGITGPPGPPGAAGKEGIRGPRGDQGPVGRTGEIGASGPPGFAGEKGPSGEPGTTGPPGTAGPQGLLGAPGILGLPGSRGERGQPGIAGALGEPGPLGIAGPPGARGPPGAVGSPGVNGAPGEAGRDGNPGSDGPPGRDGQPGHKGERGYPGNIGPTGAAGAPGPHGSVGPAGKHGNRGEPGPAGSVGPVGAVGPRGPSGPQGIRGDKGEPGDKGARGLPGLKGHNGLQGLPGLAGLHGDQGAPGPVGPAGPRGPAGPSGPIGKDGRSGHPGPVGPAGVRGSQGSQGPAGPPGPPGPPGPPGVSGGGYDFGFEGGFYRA
Procedure: (§1) Peptides were incubated 24 hours at 37° C. on collagens I-IV, elastin, hyaluronic acid, and Geltrex. Coatings (10 pig/cm^2) were previously dried overnight in milli-Q water. Overall significance was assessed using analysis of variance, with Tukey's multiple comparison post-hoc analysis between ECM groups where n=4.
(§2) Biotinylated peptides were custom synthesized by ABI Scientific, Inc. (Sterling, VA). Uranyl acetate and TEM grids were from Ted Pella, Inc (Redding, CA). Unless specified otherwise, all water used in these experiments was Milli-Q grade. HA (˜1 MDa), collagen types I (rat), II (chicken), III (human), and IV (mouse), elastin (bovine), deuterium oxide (D2O), acetic acid-d4, sodium acetate-d3, 3-(Trimethylsilyl)propionic-2,2,3,3-d6 (DSS-D6) acid sodium salt, and 2,2,2-trifluoroethanol (TFE) and were obtained from Sigma-Aldrich (St. Louis, MO). Streptavidin (Alexa Fluor 488 conjugate) and Geltrex were obtained from Thermo Fisher Scientific Inc. (Waltham, MA). […]
(§3) Hyaluronic acid, collagens I, II, III, and IV, elastin, and Geltrex were coated onto 96-well black plates (medium binding affinity) at 10 μg/cm^2 and were dried in milli-Q water at room temperature. […] The plates were read with a fluorescence microplate reader for fluorescence intensity (Ex 490 nm, Em 525 nm). All data were normalized to the background fluorescence intensity of Streptavidin-488.

[3] = biological target: T2, elastin (Bos taurus, UniProt P04985); assay: ECM specificity binding test, elastin coating; parameters: species or system bovine; settings: 5.0 mg/ml peptide, FIG. 4
T2 construct: purchased Sigma-Aldrich
T2 sequence (P04985 27-747): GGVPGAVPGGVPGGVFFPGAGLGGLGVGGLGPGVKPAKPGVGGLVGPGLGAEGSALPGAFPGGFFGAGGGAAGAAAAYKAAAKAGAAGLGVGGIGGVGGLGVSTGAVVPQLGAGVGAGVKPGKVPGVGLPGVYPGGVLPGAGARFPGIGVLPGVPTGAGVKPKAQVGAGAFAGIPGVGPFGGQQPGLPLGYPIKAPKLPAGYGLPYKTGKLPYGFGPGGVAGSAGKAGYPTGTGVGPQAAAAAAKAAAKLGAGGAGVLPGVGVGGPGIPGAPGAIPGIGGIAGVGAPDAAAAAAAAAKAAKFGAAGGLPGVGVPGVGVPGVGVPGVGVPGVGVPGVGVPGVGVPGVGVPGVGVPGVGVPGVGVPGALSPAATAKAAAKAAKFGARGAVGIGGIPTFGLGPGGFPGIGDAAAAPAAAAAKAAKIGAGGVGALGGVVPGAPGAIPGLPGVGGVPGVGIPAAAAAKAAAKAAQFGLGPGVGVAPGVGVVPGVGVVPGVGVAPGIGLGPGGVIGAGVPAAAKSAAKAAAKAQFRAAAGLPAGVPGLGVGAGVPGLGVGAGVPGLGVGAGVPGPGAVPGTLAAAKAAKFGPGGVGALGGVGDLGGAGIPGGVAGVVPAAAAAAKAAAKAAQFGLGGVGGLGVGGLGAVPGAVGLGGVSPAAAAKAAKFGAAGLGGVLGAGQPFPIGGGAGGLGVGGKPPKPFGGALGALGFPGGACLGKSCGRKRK
Procedure: as §1
Biotinylated peptides were custom synthesized by ABI Scientific, Inc. (Sterling, VA). Uranyl acetate and TEM grids were from Ted Pella, Inc (Redding, CA). Unless specified otherwise, all water used in these experiments was Milli-Q grade. HA (˜1 MDa), collagen types I (rat), II (chicken), III (human), and IV (mouse), elastin (bovine), deuterium oxide (D2O), acetic acid-d4, sodium acetate-d3, 3-(Trimethylsilyl)propionic-2,2,3,3-d6 (DSS-D6) acid sodium salt, and 2,2,2-trifluoroethanol (TFE) and were obtained from Sigma-Aldrich (St. Louis, MO). Streptavidin (Alexa Fluor 488 conjugate) and Geltrex were obtained from Thermo Fisher Scientific Inc. (Waltham, MA). Sodium hyaluronate (5 and 60 KDa) was purchased from Lifecore Biomedical LLC (Chaska, MN). In reference to terminology, N and C termini is used to describe the amino terminal (N) and the carboxyl terminal (C) of the peptide. The biotinylated peptides are used in every experiment.
Hyaluronic acid, collagens I, II, III, and IV, elastin, and Geltrex were coated onto 96-well black plates (medium binding affinity) at 10 μg/cm^2 and were dried in milli-Q water at room temperature. N-termini biotinylated peptides were added to coated plates at 0, 1, 2.5, 5 and 10 mg/ml overnight at 37° C. in phosphate buffered saline (PBS), pH 7.4, after which the plates were washed three times with PBS. Fluorescent streptavidin-488 (4 μg/mL) was added to each well and incubated at 37° C. temperature for 24 hours, then thoroughly washed with PBS. The plates were read with a fluorescence microplate reader for fluorescence intensity (Ex 490 nm, Em 525 nm). All data were normalized to the background fluorescence intensity of Streptavidin-488.

[4] = Transmission electron microscopy (TEM) of peptide nanostructures; format: physicochemical; settings: PBS pH 7.4, 0.5% w/v, 30 minutes sonication, 24 hrs at 37° C.
Procedure: The sample and stain were filter-dried in between steps. Samples were collected 24 hours at 37° C. after 30 minutes of sonication. All TEM was performed on a Philips FEI Technai Spirit G2 electron microscope. Peptides were incubated in both PBS and SC.

[5] = tested on: extracellular matrix (ECM) components: Collagen type I, II, III and IV, elastin, hyaluronic acid and Geltrex; assay: ECM specificity binding test, whole panel; settings: 5.0 mg/ml peptide, FIG. 4
[6] = biological target: T3, collagen type III (Homo sapiens, UniProt P02461); assay: ECM specificity binding test, collagen type III coating; settings: 5.0 mg/ml peptide, FIG. 4
T3 construct: purchased Sigma-Aldrich
T3 sequence (P02461 154-1221 limits assumed): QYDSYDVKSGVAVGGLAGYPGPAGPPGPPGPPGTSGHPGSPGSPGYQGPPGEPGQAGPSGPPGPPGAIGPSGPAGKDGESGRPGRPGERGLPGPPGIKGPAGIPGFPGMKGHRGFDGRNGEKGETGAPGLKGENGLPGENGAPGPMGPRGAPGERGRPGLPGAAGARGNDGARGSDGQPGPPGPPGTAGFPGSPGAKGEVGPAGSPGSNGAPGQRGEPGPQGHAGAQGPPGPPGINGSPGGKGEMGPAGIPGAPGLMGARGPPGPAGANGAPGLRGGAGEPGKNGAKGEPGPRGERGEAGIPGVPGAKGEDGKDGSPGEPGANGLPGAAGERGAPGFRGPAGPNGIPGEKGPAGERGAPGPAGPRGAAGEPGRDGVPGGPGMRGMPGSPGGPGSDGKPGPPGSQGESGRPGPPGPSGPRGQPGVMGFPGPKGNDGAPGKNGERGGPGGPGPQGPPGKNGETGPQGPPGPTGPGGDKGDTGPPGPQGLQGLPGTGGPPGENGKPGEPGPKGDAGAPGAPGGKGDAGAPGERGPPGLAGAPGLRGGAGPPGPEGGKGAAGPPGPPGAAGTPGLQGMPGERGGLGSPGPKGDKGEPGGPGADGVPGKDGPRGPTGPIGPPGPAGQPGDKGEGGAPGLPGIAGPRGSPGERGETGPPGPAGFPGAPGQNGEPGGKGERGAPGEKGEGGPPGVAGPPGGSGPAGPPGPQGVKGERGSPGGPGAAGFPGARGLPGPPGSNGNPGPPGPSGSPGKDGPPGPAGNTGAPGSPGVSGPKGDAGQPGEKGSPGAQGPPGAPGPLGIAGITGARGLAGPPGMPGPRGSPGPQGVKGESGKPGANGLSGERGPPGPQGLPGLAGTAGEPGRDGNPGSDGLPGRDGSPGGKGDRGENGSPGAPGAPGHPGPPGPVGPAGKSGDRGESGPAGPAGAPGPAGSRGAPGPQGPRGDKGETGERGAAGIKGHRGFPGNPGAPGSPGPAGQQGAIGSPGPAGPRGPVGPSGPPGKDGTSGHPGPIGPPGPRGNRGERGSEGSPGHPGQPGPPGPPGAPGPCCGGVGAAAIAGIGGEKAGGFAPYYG
Procedure: as §1, §2, §3

[7] = biological target: T4, collagen type II (Gallus gallus, UniProt P02460); assay: ECM specificity binding test, collagen type II coating; parameters: species or system chicken; settings: 5.0 mg/ml peptide, FIG. 4
T4 construct: purchased Sigma-Aldrich
T4 sequence (P02460 whole entry): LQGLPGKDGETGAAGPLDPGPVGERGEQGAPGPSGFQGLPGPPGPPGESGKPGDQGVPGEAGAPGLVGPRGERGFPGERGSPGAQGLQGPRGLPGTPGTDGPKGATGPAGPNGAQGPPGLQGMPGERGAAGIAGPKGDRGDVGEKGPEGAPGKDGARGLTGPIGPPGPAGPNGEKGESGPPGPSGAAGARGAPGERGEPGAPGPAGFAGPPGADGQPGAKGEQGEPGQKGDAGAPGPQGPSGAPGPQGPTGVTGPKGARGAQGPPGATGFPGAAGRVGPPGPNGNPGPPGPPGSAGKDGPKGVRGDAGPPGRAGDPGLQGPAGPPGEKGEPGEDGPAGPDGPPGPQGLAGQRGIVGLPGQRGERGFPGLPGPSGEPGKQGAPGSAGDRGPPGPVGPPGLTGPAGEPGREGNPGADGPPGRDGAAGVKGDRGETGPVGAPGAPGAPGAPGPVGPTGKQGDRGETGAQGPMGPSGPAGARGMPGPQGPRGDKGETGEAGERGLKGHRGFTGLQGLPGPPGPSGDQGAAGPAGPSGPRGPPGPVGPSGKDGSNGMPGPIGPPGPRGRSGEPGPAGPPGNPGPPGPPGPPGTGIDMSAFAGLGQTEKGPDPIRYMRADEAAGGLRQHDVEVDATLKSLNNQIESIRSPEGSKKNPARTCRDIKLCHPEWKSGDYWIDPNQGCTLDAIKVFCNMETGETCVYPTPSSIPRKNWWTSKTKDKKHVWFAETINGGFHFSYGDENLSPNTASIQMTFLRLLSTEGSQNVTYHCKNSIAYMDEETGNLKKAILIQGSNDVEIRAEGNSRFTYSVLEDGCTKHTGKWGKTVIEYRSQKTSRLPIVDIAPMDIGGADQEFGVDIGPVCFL
Procedure: as §1, §2, §3

binding to collagen type I [2]: predominantly
binding to elastin [3]: predominantly
binding to the ECMs (for 17x-3: the ECMs other than hyaluronic acid) [5]: moderate binding
binding to collagen type III [6]: predominantly
binding to collagen type II [7]: predominantly
Sequence: TKAKIKHSVKLKAKLRIKLVKRI [Peptide 10K, five B(X7)B domains in 23 residues]
Ellipticity ratio (222 nm/208 nm) [1]: 0.67
Ellipticity 208 nm [1]: −113
Ellipticity 222 nm [1]: −75.3
wavelength Minimum of CD profile [1]: 224 nm
Ellipticity ratio (222 nm/208 nm) ([1]; 20% TFE): 0.83
Ellipticity 208 nm ([1]; 20% TFE): −235
Ellipticity 222 nm ([1]; 20% TFE): −194
wavelength Minimum of CD profile ([1]; 20% TFE): 223 nm
TEM characterization, Phosphate Buffered Saline (i) [4]: No structure
